Values quoted from earlier work, collected in paper PMC6935268.

Biological target: CD80 (Homo sapiens) (UniProt P33681)
Sequence of UniProt P33681 (P33681 35-242): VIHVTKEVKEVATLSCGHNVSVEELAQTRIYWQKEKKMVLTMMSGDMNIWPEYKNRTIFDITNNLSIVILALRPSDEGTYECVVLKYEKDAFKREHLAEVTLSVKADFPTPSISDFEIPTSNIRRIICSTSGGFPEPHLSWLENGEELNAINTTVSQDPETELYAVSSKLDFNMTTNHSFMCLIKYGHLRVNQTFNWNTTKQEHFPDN

- Kd: 17.8 µM
Substance: PD-L1 (from UniProt Q9NZQ7)
